According to patent publication US12527862B2, “Bactericidal/permeability increasing protein for use in a method of immunization, preferably as an adjuvant in a method of vaccination” (UNIVERSITÄT REGENSBURG, priority 2018, dated 2026):

System: BMDCs
Experiment: Cytokine protein secretion by BMDCs (Luminex)
Assay type: cell-based, C57BL/6J mice
Description: All methods mentioned in this example were carried out as described in the preceding examples. Cells were stimulated with Zymosan depleted (Zymd, 5 μg/ml) from Invivogen (San Diego, CA, USA) or (R)-Pam3CSK4 (bLP, 10 nM) from EMC Microcollections GmbH (Tübingen, Germany). Protein secretion analysis was performed using the supernatants.
To quantify the interleukin and chemokine protein-level after stimulation with huBPI, Zymd, and (R)-Pam CSK4, a multiplex-system was used and determined by using the Luminex® technology (Austin, TX, USA). The cytokines were captured with anti-mouse capture-antibodies and detected by biotinylated antibodies specific for the respective protein (Table 3). Protein concentrations were calculated using a reconstituted standard curve of the analyzed proteins (SM039, #LMC4031, Lot #1438354; Thermo Fisher Scientific; Standard Mix 1a, #EPX010-20603-901, Lot #111709101, eBioscience).

B1: bactericidal/permeability-increasing protein (protein)
chain: RIKIPDYSDSFKIKHLGKGHYSFYSMDIREFQLPSSQISMVPNVGLKFSISNANIKISGKWKAQKRFLKMSGNFDLSIEGMSISADLKLGSNPTSGKPTITCSSCSSHINSVHVHISKSKVGWLIQLFHKKIESALRNKMNSQVCEKVTNSVSSELQPYFQTLPVMTKIDSVAGINYGLVAPPATTAETLDVQMKGEFYSENHHNPPPFAPPVMEFPAAHDRMVYLGLSDYFFNTAGLVYQEAGVLKMTLRDDMIPKESKFRLTTKFFGTFLPEVAKKFPNMKIQIHVSASTPPHLSVQPTGLTFYPAVDVQAFAVLPNSSLASLFLIGMHTTGSMEVSAESNRLVGELKLDRLLLELKHSNIGPFPVELLQDIMNYIVPILVLPRVNEKLQKGFPLPTPARVQLYNVVLQPHQNFLLFGADVVYK
modifications: labeled with NT647 (Monolith NT Protein Labeling Kit RED-NHS) in the MST experiments
notes: recombinant human BPI, aa32-487 of huBPI with N-terminal HA signal peptide, expressed in HEK293T cells
For B1, the IL-4 level (BMDCs (FIG. 12)) was “not induced”, the “IL-2, IL-12p40/p70, and IL-6 protein secretion” value (Luminex, n>7, 4h (FIG. 3)) was “increase of IL-2, IL-12p40/p70, and IL-6 protein secretion” and the “stimulatory effect on the expression of IL-6 (IL-6 level), BPI vs Zymd vs bLP” value (Zymd 5 μg/ml, bLP 10 nM, Luminex, n>7, 4h (FIG. 3)) was “comparable”. For the same molecule, the “increase of IL-2 and IL12p40/p70 compared to Zymd and bLP” value (vs Zymd 5 μg/ml and bLP 10 nM, Luminex, n>7, 4h (FIG. 3)) was “significantly higher”.
